Reference: patent publication US20240409645A1 (DUALYX, published 2024)

Molecular target: T1, human IL-2 receptor (IL-2Rα/IL-2Rβ/γc) (human, UniProt P01589 22-272; P14784 27-551; P31785 23-369)
T1 sequence 1: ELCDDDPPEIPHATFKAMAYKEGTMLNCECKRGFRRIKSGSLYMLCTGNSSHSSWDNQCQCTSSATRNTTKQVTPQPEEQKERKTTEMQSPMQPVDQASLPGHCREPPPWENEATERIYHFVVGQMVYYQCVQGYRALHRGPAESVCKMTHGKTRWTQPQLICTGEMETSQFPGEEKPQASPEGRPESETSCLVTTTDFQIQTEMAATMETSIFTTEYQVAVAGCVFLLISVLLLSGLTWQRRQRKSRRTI
T1 sequence 2: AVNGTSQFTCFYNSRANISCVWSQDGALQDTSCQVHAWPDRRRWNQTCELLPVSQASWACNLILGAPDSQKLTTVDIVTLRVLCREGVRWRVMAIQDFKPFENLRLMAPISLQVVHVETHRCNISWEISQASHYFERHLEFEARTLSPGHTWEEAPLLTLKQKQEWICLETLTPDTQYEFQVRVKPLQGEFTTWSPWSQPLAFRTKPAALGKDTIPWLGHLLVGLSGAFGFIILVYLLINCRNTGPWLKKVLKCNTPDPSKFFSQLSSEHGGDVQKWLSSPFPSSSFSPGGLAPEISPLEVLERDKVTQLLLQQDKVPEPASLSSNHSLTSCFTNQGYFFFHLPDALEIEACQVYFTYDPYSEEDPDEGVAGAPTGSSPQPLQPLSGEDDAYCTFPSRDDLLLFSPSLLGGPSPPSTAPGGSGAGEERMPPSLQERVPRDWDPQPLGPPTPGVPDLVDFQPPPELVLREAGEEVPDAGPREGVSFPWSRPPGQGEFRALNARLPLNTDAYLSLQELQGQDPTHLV
T1 sequence 3: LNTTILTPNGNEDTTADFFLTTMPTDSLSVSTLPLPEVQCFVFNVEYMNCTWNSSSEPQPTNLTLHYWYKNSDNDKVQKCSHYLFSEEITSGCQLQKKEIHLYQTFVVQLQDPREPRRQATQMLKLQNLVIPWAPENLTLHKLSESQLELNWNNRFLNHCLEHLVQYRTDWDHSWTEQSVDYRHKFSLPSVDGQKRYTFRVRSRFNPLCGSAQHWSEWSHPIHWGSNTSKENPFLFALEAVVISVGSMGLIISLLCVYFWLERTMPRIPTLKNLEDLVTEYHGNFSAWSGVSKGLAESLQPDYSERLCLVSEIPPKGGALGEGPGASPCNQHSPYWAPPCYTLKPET
Assay: cell-based or functional assay

B1: DC00085 (other)
chain 1: EVQLVESGGGLVQAGGSLRLSCAASGGSIYTYNMGWFRQAPGKEREFVAGTLWSGGDSVYADFAKGRFTLSRENAKNTLYLQMNSLKPEDTATYYCAIDPLSLTSDWRVDELSSWGKGTLVTVSSDKTHTCPPCPAPEAAGGPSVFLFPPKPKDTLMISRTPEVTCVVVDVSHEDPEVKFNWYVDGVEVHNAKTKPREEQYNSTYRVVSVLTVLHQDWLNGKEYKCKVSNKALGAPIEKTISKAKGQPREPQVYTLPPSRDELTKNQVSLTCLVKGFYPSDIAVEWESNGQPENNYKTTPPVLDSDGSFLLYSKLTVDKSRWQQGNVFSCSVMHEALHNHYTQKSLSLSPGK
chain 2: EVQLVESGGGLVQTGGSLRLSCAASGGTFSRDAMAWFRQVPGKEREFVALISWSGATTNYADSVKGRFAISRDNGKNTVYLQMNRLKPADTAIYYCAADRRPMGSRSYFEPTEYDDWGQGTQVTVSSGGGGSGGGGSGGGGSQVQLVESGGGLVQPGGSLRLSCATSGFTFRNNFMSWVRQAPGKGLEWVSTISYGGESTTYAESVKGRFTISRDNAKNTLYLQMNNLKPEDTAVYYCAKATSYDSIRSGSRGQGTQVTVSSGGGGSGGGGSGGGGSQVQLVESGGGLVQAGGSLTLSCAAPGRTFGTDVVGWFRQAPGKEREFVASISRSGDGIYYDDSVKGRFTISRNNAWNTVNLQMNSLKVEDTAVYYCAAGDGWSTYDYWGQGTQVTVSSGGGGSGGGGSGGGGSDKTHTCPPCPAPEAAGGPSVFLFPPKPKDTLMISRTPEVTCVVVDVSHEDPEVKFNWYVDGVEVHNAKTKPREEQYNSTYRVVSVLTVLHQDWLNGKEYKCKVSNKALGAPIEKTISKAKGQPREPQVYTLPPSRDELTKNQVSLTCLVKGFYPSDIAVEWESNGQPENNYKTTPPVLDSDGSFFLYSRLTVDKSRWQQGNVFSCSVMHEALHNHYTQKSLSLSPGK
B1 was tested, and the “EC50 (nM) pSTAT5, NK, human PBMCs” value was 0.663 nM, the “EC50 (nM) pSTAT5, Treg, human PBMCs” value was 0.0313 nM and the “Fold Max signal (% pSTAT5+) Treg/NK” value was 4 fold. The “Max signal (% pSTAT5+), NK” value was 2.19 % pSTAT5+, the “Max signal (% pSTAT5+), Treg” value was 8.49 % pSTAT5+ and the “fold EC50 NK/Treg” value was 21 fold.

B2: DC00087 (other)
chain 1: EVQLVESGGGLVQAGGSLRLSCAASGGSIYTYNMGWFRQAPGKEREFVAGTLWSGGDSVYADFAKGRFTLSRENAKNTLYLQMNSLKPEDTATYYCAIDPLSLTSDWRVDELSSWGKGTLVTVSSDKTHTCPPCPAPEAAGGPSVFLFPPKPKDTLMISRTPEVTCVVVDVSHEDPEVKFNWYVDGVEVHNAKTKPREEQYNSTYRVVSVLTVLHQDWLNGKEYKCKVSNKALGAPIEKTISKAKGQPREPQVYTLPPSRDELTKNQVSLTCLVKGFYPSDIAVEWESNGQPENNYKTTPPVLDSDGSFLLYSKLTVDKSRWQQGNVFSCSVMHEALHNHYTQKSLSLSPGK
chain 2: QVQLVESGGGLVQPGGSLRLSCATSGFTFRNNFMSWVRQAPGKGLEWVSTISYGGESTTYAESVKGRFTISRDNAKNTLYLQMNNLKPEDTAVYYCAKATSYDSIRSGSRGQGTQVTVSSGGGGSGGGGSGGGGSEVQLVESGGGLVQTGGSLRLSCAASGGTFSRDAMAWFRQVPGKEREFVALISWSGATTNYADSVKGRFAISRDNGKNTVYLQMNRLKPADTAIYYCAADRRPMGSRSYFEPTEYDDWGQGTQVTVSSGGGGSGGGGSGGGGSQVQLVESGGGLVQAGGSLTLSCAAPGRTFGTDVVGWFRQAPGKEREFVASISRSGDGIYYDDSVKGRFTISRNNAWNTVNLQMNSLKVEDTAVYYCAAGDGWSTYDYWGQGTQVTVSSGGGGSGGGGSGGGGSDKTHTCPPCPAPEAAGGPSVFLFPPKPKDTLMISRTPEVTCVVVDVSHEDPEVKFNWYVDGVEVHNAKTKPREEQYNSTYRVVSVLTVLHQDWLNGKEYKCKVSNKALGAPIEKTISKAKGQPREPQVYTLPPSRDELTKNQVSLTCLVKGFYPSDIAVEWESNGQPENNYKTTPPVLDSDGSFFLYSRLTVDKSRWQQGNVFSCSVMHEALHNHYTQKSLSLSPGK
In the case of B2, the “EC50 (nM) pSTAT5, NK, human PBMCs” value is reported as 0.00972 nM, the “Fold Max signal (% pSTAT5+) Treg/NK” value is reported as 3 fold and the “Max signal (% pSTAT5+), NK” value is reported as 1.4 % pSTAT5+. For the same binder, the “Max signal (% pSTAT5+), Treg” value was 4.37 % pSTAT5+.

B3: DC00086 (other)
chain 1: EVQLVESGGGLVQAGGSLRLSCAASGGSIYTYNMGWFRQAPGKEREFVAGTLWSGGDSVYADFAKGRFTLSRENAKNTLYLQMNSLKPEDTATYYCAIDPLSLTSDWRVDELSSWGKGTLVTVSSDKTHTCPPCPAPEAAGGPSVFLFPPKPKDTLMISRTPEVTCVVVDVSHEDPEVKFNWYVDGVEVHNAKTKPREEQYNSTYRVVSVLTVLHQDWLNGKEYKCKVSNKALGAPIEKTISKAKGQPREPQVYTLPPSRDELTKNQVSLTCLVKGFYPSDIAVEWESNGQPENNYKTTPPVLDSDGSFLLYSKLTVDKSRWQQGNVFSCSVMHEALHNHYTQKSLSLSPGK
chain 2: QVQLVESGGGLVQPGGSLRLSCATSGFTFRNNFMSWVRQAPGKGLEWVSTISYGGESTTYAESVKGRFTISRDNAKNTLYLQMNNLKPEDTAVYYCAKATSYDSIRSGSRGQGTQVTVSSGGGGSGGGGSGGGGSQVQLVESGGGLVQAGGSLTLSCAAPGRTFGTDVVGWFRQAPGKEREFVASISRSGDGIYYDDSVKGRFTISRNNAWNTVNLQMNSLKVEDTAVYYCAAGDGWSTYDYWGQGTQVTVSSGGGGSGGGGSGGGGSEVQLVESGGGLVQTGGSLRLSCAASGGTFSRDAMAWFRQVPGKEREFVALISWSGATTNYADSVKGRFAISRDNGKNTVYLQMNRLKPADTAIYYCAADRRPMGSRSYFEPTEYDDWGQGTQVTVSSGGGGSGGGGSGGGGSDKTHTCPPCPAPEAAGGPSVFLFPPKPKDTLMISRTPEVTCVVVDVSHEDPEVKFNWYVDGVEVHNAKTKPREEQYNSTYRVVSVLTVLHQDWLNGKEYKCKVSNKALGAPIEKTISKAKGQPREPQVYTLPPSRDELTKNQVSLTCLVKGFYPSDIAVEWESNGQPENNYKTTPPVLDSDGSFFLYSRLTVDKSRWQQGNVFSCSVMHEALHNHYTQKSLSLSPGK
With B3 the “EC50 (nM) pSTAT5, NK, human PBMCs” value was 0.187 nM, the “EC50 (nM) pSTAT5, Treg, human PBMCs” value was 0.00441 nM and the “Fold Max signal (% pSTAT5+) Treg/NK” value was 9 fold. For the same binder, the “Max signal (% pSTAT5+), NK” value was 4.9 % pSTAT5+, the “Max signal (% pSTAT5+), Treg” value was 44.1 % pSTAT5+ and the “fold EC50 NK/Treg” value was 42 fold.

B4: DC00083 (other)
chain 1: QVQLVESGGGLVQAGGSLRLSCAASGGTFRTRNMGWFRRAPGKEREFVAAVSWNVDNKLYADSVKGRFTISRDNGRNMVYLQMNSLKPEDTAVYYCAADNIPLSSDMRPTATEYDYWGQGTQVTVSSDKTHTCPPCPAPEAAGGPSVFLFPPKPKDTLMISRTPEVTCVVVDVSHEDPEVKFNWYVDGVEVHNAKTKPREEQYNSTYRVVSVLTVLHQDWLNGKEYKCKVSNKALGAPIEKTISKAKGQPREPQVYTLPPSRDELTKNQVSLTCLVKGFYPSDIAVEWESNGQPENNYKTTPPVLDSDGSFLLYSKLTVDKSRWQQGNVFSCSVMHEALHNHYTQKSLSLSPGK
chain 2: QVQLVESGGGLVQAGGSLTLSCAAPGRTFGTDVVGWFRQAPGKEREFVASISRSGDGIYYDDSVKGRFTISRNNAWNTVNLQMNSLKVEDTAVYYCAAGDGWSTYDYWGQGTQVTVSSGGGGSGGGGSGGGGSEVQLVESGGGLVQTGGSLRLSCAASGGTFSRDAMAWFRQVPGKEREFVALISWSGATTNYADSVKGRFAISRDNGKNTVYLQMNRLKPADTAIYYCAADRRPMGSRSYFEPTEYDDWGQGTQVTVSSGGGGSGGGGSGGGGSQVQLVESGGGLVQPGGSLRLSCATSGFTFRNNFMSWVRQAPGKGLEWVSTISYGGESTTYAESVKGRFTISRDNAKNTLYLQMNNLKPEDTAVYYCAKATSYDSIRSGSRGQGTQVTVSSDKTHTCPPCPAPEAAGGPSVFLFPPKPKDTLMISRTPEVTCVVVDVSHEDPEVKFNWYVDGVEVHNAKTKPREEQYNSTYRVVSVLTVLHQDWLNGKEYKCKVSNKALGAPIEKTISKAKGQPREPQVYTLPPSRDELTKNQVSLTCLVKGFYPSDIAVEWESNGQPENNYKTTPPVLDSDGSFFLYSRLTVDKSRWQQGNVFSCSVMHEALHNHYTQKSLSLSPGK
B4 was tested, and the “EC50 (nM) pSTAT5, NK, human PBMCs” value was 0.496 nM, the “EC50 (nM) pSTAT5, Treg, human PBMCs” value was under 0.1 pM and the “Fold Max signal (% pSTAT5+) Treg/NK” value was 5 fold. For the same binder, the “Max signal (% pSTAT5+), NK” value was 13 % pSTAT5+, the “Max signal (% pSTAT5+), Treg” value was 64.1 % pSTAT5+ and the “fold EC50 NK/Treg” value was over 4960 fold.
